Test results: patent US7592003B2, “Regulation of toll-like receptors on stem cells” (Oklahoma Medical Research Foundation, priority 2005, dated 2009)

System: LKS^− cells
Assay: Serum-free culture of LKS- myeloid/erythroid progenitors (and CMP, GMP subsets), F4/80 by flow cytometry
Format: cell-based, mouse
Settings: 72 h, no other growth factors
Protocol: FIGS. 4A-D—Activation of TLRs through MyD88 bypasses normal differentiation cues and drives monocytes/macrophages differentiation of myeloid progenitors. (FIG. 4A) Sorted LKS^− cells from C57BL/6 or MyD88^−/− mice were stimulated with medium alone, LPS (10 μg/ml), Pam3CSK4 (1 μg/ml), M-CSF, or GM-CSF. After 72 h in culture, cells were analyzed by flow cytometry for expression of F4/80. Open histograms depict staining with the isotype matched Ab for F4/80. Percentages given in each histogram indicate the frequencies of F4/80^+ cells and the results are representative of three independent experiments. (FIG. 4B) The bar graph depicts yields, i.e., numbers of F4/80^+ cell recovered per input progenitor. Data represent mean values with standard deviations from triplicate cultures and the results are representative of three independent experiments (*P<0.005). […] After 72 h in culture, cells were analyzed by flow cytometry for expression of F4/80. […] After 24 or 48 h in culture, cells were analyzed by flow cytometry for expression of F4/80. […]
FIG. 13—TLR stimulation causes rapid production of F4/80^+ cells from LKS^− cells. […] Stimulated wells were analyzed after 24 h or 48 h of culture by flow cytometry for expression of F4/80. […]

B1: GM-CSF: Recombinant mouse GM-CSF, colony stimulating factor, 20 ng/ml (protein, UniProt P01587 18-141, looked up)
Granulocyte-macrophage …: APTRSPITVTRPWKHVEAIKEALNLLDDMPVTLNEEVEVVSNEFSFKKLTCVQTRLKIFEQGLRGNFTKLKGALNMTASYYQTYCPPTPETDCETQVTTYADFIDSLKTFLTDIPFECKKPGQK
With B1 the “Acquisition of F4/80 by LKS- cells” value was “only a subset of LKS^− myeloid progenitors responded”.
